The source of these data is the supplement of paper PMC12042874.

± gives the uncertainty stated by the source.

The data set in a line: amyloid nucleation score (Sup35N fusion, yeast selection) (log enrichment); library NNK3; higher = more nucleation; inactive = no reads after selection. The essentials:
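Nucleation score is defined as the DiMSum log enrichment of output over input reads, with centring on the mode score of non-aggregating sequences. A minimum of 100 input reads was required for each sequence. Reads came from Illumina sequencing of plasmid inserts from psi-negative yeast expressing Sup35N fused to peptides of 20 random codons, induced with 100 μM copper sulfate for 24 hours and grown 7 days at 30°C on medium lacking adenine and uracil.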
As for DSTDFRVLRGRRSRGEYVRG, the amyloid nucleation score entry was “inactive”.
Turning to DSVYGMHGKTTFT, the amyloid nucleation score entry is “inactive”.
As to DSYYFPRQGWMY, the amyloid nucleation score entry is “inactive”.
Take DTITRSTWIVCWRTE: the amyloid nucleation score result was “inactive”.
Next, DTMSKPSLLLGIPCVTHDVA: “inactive”; DTQQENCRTRGVRRGPRFCG: “inactive”.
In the case of DTRFWTARLLYFFI, the amyloid nucleation score entry was “inactive”.
On to DTVMGSCDEFYLFASRHLCL, for which the amyloid nucleation score result is “inactive”.
As to DTYRV, the amyloid nucleation score entry is “inactive”.
Next, DVALTWPCYVDTTKCQMIMY: “inactive”.
For DVAWHRSACEYLFM the value was “inactive”; for DVAYFNAFY, “inactive”.
For DVCEGEIYDPDSLKWFYQFL, the amyloid nucleation score entry is “inactive”.
Consider DVCTLSELSVFPSLSISQ, for which the amyloid nucleation score entry is “inactive”.
As for DVEFI, the amyloid nucleation score result is “inactive”.
With DVFRVMDNLLFWKGTLALIQ, the amyloid nucleation score entry is “inactive”.
Next, DVGSR: “inactive”.
Next, DVLGVSSASERAFGFENRAL: “inactive”; DVLRVPMNEVTNWSIPPY: “inactive”.
For DVMEVNLVPRAFNLCSSSGL, the amyloid nucleation score result was “inactive”.
For DVMKVMDRINKRGDNSNYVC, the amyloid nucleation score result is “inactive”.
Next, DVNLRTSHYAF: “inactive”.
With DVRIIAV, the amyloid nucleation score entry is “inactive”.
Regarding DWFSMVSRSGVDLKSVKRFG, the amyloid nucleation score result is “inactive”.
On to DWLDLSGVSCH, for which the amyloid nucleation score was -0.11 ± 0.62.
For the substance DWTRFPSAFTGVQKSLVD, the amyloid nucleation score entry is “inactive”.
DWYMTVW: the amyloid nucleation score entry was “inactive”.
With DYDGWESCFHFS, the amyloid nucleation score entry was “inactive”.
For DYIYILSW, the amyloid nucleation score result was “inactive”.
Next, DYKRSMGFGWLTFVPYLAGN: “inactive”; DYLPFHLMERDKVALAPWWA: “inactive”; DYRVNCFTCLYVVEVSHSHD: 1.84 ± 0.061.
Regarding DYVFPRVYRGS, the amyloid nucleation score result was “inactive”.
Turning to DYVPIKFYRYYEILNVCRVV, the amyloid nucleation score result is “inactive”.
On to EARLTSLCKKQYEF, for which the amyloid nucleation score result was “inactive”.
As to EAVSCWSRKNMVRYGNGDRA, the amyloid nucleation score result was “inactive”.
Next, ECLRLDCGTSRLYYYHLITM: 0.814 ± 0.24.
Next, ECMRNTPLTQSTATTMTTGF: “inactive”.
On to ECTSF, for which the amyloid nucleation score result was “inactive”.
For ECVCCRYYLVCGGPILRQDL the value was “inactive”; for EDLVISNIFGWFGCLGLVYT, “inactive”.
For EDNRTTVVFTGEC the value was “inactive”.
Consider EDVSSNIRWRHTGKGETVVM, for which the amyloid nucleation score result is “inactive”.
Next, EDVYFSYGDVWMVIGALTTV: “inactive”; EEGCYHLLNNLGRNCSECNG: “inactive”; EFAGCKRRMRKGPIIVPADV: “inactive”.
On to EFDDRACYDDTV, for which the amyloid nucleation score entry is “inactive”.
Regarding EFFCWIDSSIGSRYFSMTED, the amyloid nucleation score result is “inactive”.
Next, EFITSYMFSFVYVKNLWCKY: “inactive”.
Take EFLQWFDFLQMMAPSLRSAN: the amyloid nucleation score entry was “inactive”.
As for EFQNFLVSFYEMYLQSPK, the amyloid nucleation score entry was “inactive”.
Turning to EFTNMYLPNSQQEVRFLQGL, the amyloid nucleation score entry is “inactive”.
Next, EFVDSLLKRGGLFRVFGASS: “inactive”.
With EFVSDLDTDEVGLHCFCWCP, the amyloid nucleation score entry was “inactive”.
In the case of EGKARGDH, the amyloid nucleation score entry is “inactive”.
Turning to EGPGDEIFVSG, the amyloid nucleation score entry was “inactive”.
For EGYACIVYCLGPINLLMWCT the value was “inactive”; for EHNAKEHITLGLTSWPNRLG, “inactive”.
On to EHPLMSSSVSSTNMFNYAQI, for which the amyloid nucleation score entry is “inactive”.
As for EHWCFINFLELICYQYLFLP, the amyloid nucleation score result was “inactive”.
On to EIYCFRCVVIGIYYLVTIID, for which the amyloid nucleation score entry was “inactive”.
Consider EKITFGECWKACSAF, for which the amyloid nucleation score result is “inactive”.
In turn, EKKCIQRRFFYSVFNLMLSF gave an amyloid nucleation score of -0.714 ± 1.
EKLVTCKDYFNRASTVTSLG: the amyloid nucleation score result is “inactive”.
On to EKNNNRDGTDAVVIGNHKAG, for which the amyloid nucleation score result is “inactive”.
In the case of EKYWNN, the amyloid nucleation score result was “inactive”.
Next, ELCVRQLCY: “inactive”; ELDGMTYASDHAFCISRNSS: “inactive”.
Next, ELLCLIYMDLHVCWQGLTMQ: “inactive”.
For ELLHKAF the value was “inactive”; for ELLSCLKIWDIL, “inactive”.
In the case of ELTEDLVDL, the amyloid nucleation score result is “inactive”.
Consider ELVGQF, for which the amyloid nucleation score entry was “inactive”.
Regarding ELVYDLDRYDGGLGVKNEEW, the amyloid nucleation score result is “inactive”.
For the substance EMNLLFIVDAIELCPVLQAR, the amyloid nucleation score entry was “inactive”.
Regarding EMNSTFW, the amyloid nucleation score result is “inactive”.
In turn, EMNVLCGTYKFQFGVASGVD had an amyloid nucleation score of -0.385 ± 0.73.
For EMSFY the value was “inactive”; for EMTGTYEVCFMT, “inactive”; for ENAYLRSCRVVVKESSNVVV, -0.906 ± 1.4.
ENIVCLAGKQHNHEMG: the amyloid nucleation score entry is “inactive”.
In the case of ENNRCYYKMF, the amyloid nucleation score result is “inactive”.
For ENSIVADTGPAV the value was “inactive”; for ENTAYWDLSGRLANQLGWRL, “inactive”; for ENYLSPTSKMTMIWGCILWW, “inactive”.
Take EPCSLPTSGPMGMVGNIKSG: the amyloid nucleation score entry is “inactive”.
Regarding EPGILLM, the amyloid nucleation score entry is “inactive”.
Next, EPQYDSYTGGVSAFVVLKEH: “inactive”.
For EQIGGI, the amyloid nucleation score result was “inactive”.
ERALIDSHPGTWLRRMTVNR: the amyloid nucleation score result is “inactive”.
In the case of ERMQHGSLSVRYFKKSSVSG, the amyloid nucleation score entry was “inactive”.
Next, ERVNVVR: “inactive”; ESCWHLAEVRVIYGHRSMRP: 0.854 ± 0.2; ESGNSSAFMAVMRISGTDVV: “inactive”.
Next, ESKTCVVHLSAKCSLSEERT: “inactive”; ESNVVPLNSHR: “inactive”; ESPAASMVLHRGRLVVCSLS: “inactive”.
As for ESVRGRLFRV, the amyloid nucleation score entry was “inactive”.
For ESWCM the value was “inactive”; for ESYLQRPRTSTRMFVMRLKV, “inactive”; for ESYRTKFIVFGWGL, 0.835 ± 0.12.
Turning to ETAYSASVRDT, the amyloid nucleation score result was “inactive”.
Next, ETDCRSAQSIC: “inactive”; ETSITHLGILAVLGCNNGSE: “inactive”.
Consider EVAWVYEYQL, for which the amyloid nucleation score result is “inactive”.
For the substance EVDLLSVNPGVYWDLDWIWF, the amyloid nucleation score is -0.292 ± 0.88.
Regarding EVFLIIIVKMVNGLSRESRC, the amyloid nucleation score entry was “inactive”.
Consider EVMLYRQHHDVRHEHSGYLT, for which the amyloid nucleation score result was “inactive”.
For EVPTRLDKMNENCNREDSAP, the amyloid nucleation score entry was “inactive”.
Next, EVSHSVEQYFSFMCHHTWAP: “inactive”; EVVSLLTFMLASLLSISVVN: “inactive”.
EWQSYYSKQRIGSGPFQLFC came in with an amyloid nucleation score of 0.179 ± 0.3.
As to EWTVNMNSYLLVSVAYGCGS, the amyloid nucleation score result was “inactive”.
Consider EYMCACSLEILVL, for which the amyloid nucleation score entry was “inactive”.
With EYNPQLSRNSNDLYADELKE, the amyloid nucleation score result was “inactive”.
EYSRMSSNQMVYSLVIFHNL showed an amyloid nucleation score of 0.509 ± 0.33.
As to FAFSNLTKPVFKI, the amyloid nucleation score entry was “inactive”.
Next, FAGEATVDTWTIFMCVIRGW: -0.225 ± 0.53; FAKFAKSYNRPITVVLANCS: “inactive”; FALMFLSWYNRKSVSRPCTE: “inactive”.
As to FAMMDELRRMWARSACSTRV, the amyloid nucleation score entry was “inactive”.
For FANSY, the amyloid nucleation score entry is “inactive”.
Next, FANYGEKIWCFGAMLGKRLS: “inactive”; FCAINP: “inactive”.
Consider FCFFSVSLDVLVHSGIC, for which the amyloid nucleation score worked out at 0.417 ± 0.19.
On to FCFIHIFNHNSRTNF, for which the amyloid nucleation score entry was “inactive”.
Take FCFKSLALELPIQKY: the amyloid nucleation score entry is “inactive”.
Next, FCFNGRCIFFYSSSLYVFGF: “inactive”; FCFRDIYKRSMSRSAYDSG: “inactive”; FCGNLEATYRSRFRSNAHSA: 0.698 ± 0.3.
Consider FCLFDFGILG, for which the amyloid nucleation score entry was “inactive”.
As for FCLFLSCGDKSILGA, the amyloid nucleation score result was “inactive”.
